Patent US20230088461A1

Columns and labels:
[1] = target: mouse GPC3 on SK-HEP-1-muGPC3 cells (mouse) (UniProt Q8CFZ4); assay: flow cytometry on SK-HEP-1-muGPC3 cells, PE anti-mouse IgG Fc
[2] = target: human GPC3 on SK-HEP-1-huGPC3 cells (human) (UniProt P51654); assay: flow cytometry on SK-HEP-1-huGPC3 cells, PE anti-mouse IgG Fc
[3] = target: cynomolgus monkey GPC3 on SK-HEP-1-cmGPC3 cells (cynomolgus monkey); assay: flow cytometry on SK-HEP-1-cmGPC3 cells, PE anti-mouse IgG Fc

mouse GPC3 on SK-HEP-1-muGPC3 cells (mouse), sequence (Q8CFZ4 25-553 limits assumed): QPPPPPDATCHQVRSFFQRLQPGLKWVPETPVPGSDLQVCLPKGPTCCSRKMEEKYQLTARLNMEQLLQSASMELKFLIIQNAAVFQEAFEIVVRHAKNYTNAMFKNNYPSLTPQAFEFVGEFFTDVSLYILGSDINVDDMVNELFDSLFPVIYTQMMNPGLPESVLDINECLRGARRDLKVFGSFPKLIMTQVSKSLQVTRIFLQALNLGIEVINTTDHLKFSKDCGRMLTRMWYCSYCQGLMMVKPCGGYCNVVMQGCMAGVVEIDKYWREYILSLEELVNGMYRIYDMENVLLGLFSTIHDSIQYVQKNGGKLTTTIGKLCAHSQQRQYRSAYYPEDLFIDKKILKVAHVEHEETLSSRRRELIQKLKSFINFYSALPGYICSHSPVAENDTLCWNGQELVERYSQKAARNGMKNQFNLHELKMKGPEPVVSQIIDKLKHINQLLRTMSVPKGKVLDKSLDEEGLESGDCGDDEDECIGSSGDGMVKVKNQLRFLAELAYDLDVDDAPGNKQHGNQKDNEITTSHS

- Positive population, % [1]: 0.91%
- Positive population, % [2]: 0.85%
- Positive population, % [3]: 0.43%
Substance: ISOTYPE (antibody)
